What was measured:
[1] = target: NTD1-CTD1 heterodimer (with canthaxanthin) (Fremyella diplosiphon UTEX481); assay: SEC
[2] = target: CTD2, C-terminal domain of the OCP2 from Fremyella diplosiphon, with C-terminal HisTag (Fremyella diplosiphon UTEX481); assay: SEC

| Substance | stoichiometry N [1] | stoichiometry N [2] |
| --- | --- | --- |
| NTD1-CTD1 heterodimer (with canthaxanthin) (complex) | 2 | – |
| CTD2, C-terminal domain of the OCP2 from Fremyella diplosiphon, with C-terminal HisTag (domain or fragment) | – | 2 |
